According to patent US20190351049A1 (Regeneron, published 2019):

B1: H2aM15279N (antibody, V domains shown)
VH: EVQLLESGGGLVQTGGSLRLSCAASGFTFSNYAMSWVRQAPGKGLEWVSAISDRGGSIYYADSVKGRFTISRDNSKNTKYLQMDSLRAEDTAVYYCAQDRGFGVFDYWGQGTLVTVSS
VL: DIQMTQSPSSLSASVGDRVTITCQASQDIGNYLNWFQQRPGKAPNLLIYGASNLETGVPSRFSGGGSGTDFTFTISSLQPEDIATYFCQQYDNLPFTFGPGTKVEIK
B2: H2aM15287N (antibody, V domains shown)
VH: QLQLQESGPGLVKPSETLSLTCTVSGGSISSGNYYWGWIRQPPGKGLEWFGTIYYSGSTYYNPSLKSRVTISVDTSKNQFSLKLSSVTAADTAVYYCARRAAVGHFDYWGQGTLVTVSS
VL: DIQMTQSPSTLSASVGDRVTITCRASQSISTWLAWYQQKPGKAPKLLIYEASSLESGVPSRFSGSGFGTEFTLTISRLQPDDFATYFCQQYNTYWTFGQGTKVEIK
B3: H1M15267N (antibody, V domains shown)
VH: QVQLQESGPGLVKPSETLSLTCTVSGGSISSYYWSWIRQPPGKGLEWIGYIYYSGSPNYNPSLKSRVTISVDTSKNQFSLKLTSVTAADTAVYYCARSLNWGPPFDYWGQGTLVTVSS
VL: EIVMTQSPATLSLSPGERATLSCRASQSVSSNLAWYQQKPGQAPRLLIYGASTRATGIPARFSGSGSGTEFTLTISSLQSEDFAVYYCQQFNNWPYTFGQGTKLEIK
B4: H2bM15292N (antibody, V domains shown)
VH: QVQLVQSGAEVKKPGSSVKVSCKASGGTFNNYAISWVRQAPGQGLEWMGGIIPFFGTTNYAQKFQDRVTITSDDSTITAYMELSRLRSEDTAVYYCARDEPRRDGYNYYHYYYMDVWGQGTTVTVSS
VL: DIQMTQSPSSLSASVGDRVTITCRASQSINSYLNWYQQKPGKAPNLLIYAASSLQSGVPSRFSGSGSGTDFTLTISSLHPEDFATYYCQQSYSTPPITFGQGTRLEIK
B5: H1M15289N (antibody, V domains shown)
VH: QVQLQESGPGLVKPSETLSLTCTVSGGSISSYYWSWIRQPPGKGLEWIGYIYYSGSANYNPSLKSRVTISVDTSKNQFSLKLSSVTAADTAVYYCVRDRDLLLDHWGQGTLVTVSS
VL: EIVMTQSPATLSVSPGKRATLSCRASQSVSSNLAWYQQKPGQAPRLLIYGASTRTTGFPARFSGSGSGTDFTLTISSLQSEDFAVYYCQQYNNWPYTFGQGTMLEIK
B6: H1M15290N (antibody, V domains shown)
VH: QVQLVQSGAEVKKPGSSVKVSCKASGGTFSTYAISWVRQAPGQGLEWMGGIIPFFGTANYAQKFQGRVTITTDESTSTAYMELSSLRSEDTAVYYCAREGTYYDSLTGYYTHYYRMDVWGQGTTVTVSS
VL: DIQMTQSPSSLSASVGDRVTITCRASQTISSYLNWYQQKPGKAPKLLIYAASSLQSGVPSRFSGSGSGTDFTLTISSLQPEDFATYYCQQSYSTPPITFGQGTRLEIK

Experiments:
MERS RBD-hFc [1] = target: T1, MERS RBD-hFc (MERS-CoV (isolate EMC/2012)); assay: ELISA on coated MERS RBD-hFc, hybridoma supernatant 1:50, absorbance at 450 nm
MERS RBD-hFc [2] = target: T1, MERS RBD-hFc; assay: SPR Biacore, captured mAb, 37 C
MERS RBD-hFc [3] = target: T1, MERS RBD-hFc; assay: SPR Biacore, captured mAb, 25 C
MERS RBD-hFc [4] = target: T1, MERS RBD-hFc; assay: SPR (Biacore), hybridoma supernatant antibody captured, MERS RBD-hFc as analyte

| Binder | ELISA Binding (MERS RBD-hFc [1]) | Kd (MERS RBD-hFc [2]) | koff (MERS RBD-hFc [2]) | kon (MERS RBD-hFc [2]) | t1/2 (MERS RBD-hFc [2]) | Kd (MERS RBD-hFc [3]) | koff (MERS RBD-hFc [3]) | kon (MERS RBD-hFc [3]) | t1/2 (MERS RBD-hFc [3]) | Kd (MERS RBD-hFc [4]) | t½ (MERS RBD-hFc [4]) |
| --- | --- | --- | --- | --- | --- | --- | --- | --- | --- | --- | --- |
| B1 | 2.18 | 0.32 nM | 0.000445 s⁻¹ | 1.39e+06 M⁻¹ s⁻¹ | 0.433 h | 0.102 nM | 8.91e-05 s⁻¹ | 870000 M⁻¹ s⁻¹ | 2.17 h | 0.266 nM | 1.6 h |
| B2 | 2.53 | 10.9 nM | 0.00189 s⁻¹ | 174000 M⁻¹ s⁻¹ | 0.1 h | 6.98 nM | 0.000442 s⁻¹ | 63300 M⁻¹ s⁻¹ | 0.433 h | 0.245 nM | ≥ 1.92 h |
| B3 | 2.62 | 0.314 nM | 0.000745 s⁻¹ | 2.37e+06 M⁻¹ s⁻¹ | 0.267 h | 0.181 nM | 0.000153 s⁻¹ | 843000 M⁻¹ s⁻¹ | 1.25 h | 0.328 nM | 1.57 h |
| B4 | 2.78 | 0.963 nM | 0.000524 s⁻¹ | 544000 M⁻¹ s⁻¹ | 0.367 h | 0.34 nM | 0.000155 s⁻¹ | 457000 M⁻¹ s⁻¹ | 1.25 h | 0.593 nM | 1.13 h |
| B5 | 2.73 | 0.275 nM | 0.000126 s⁻¹ | 459000 M⁻¹ s⁻¹ | 1.53 h | 0.21 nM | 4.41e-05 s⁻¹ | 210000 M⁻¹ s⁻¹ | 4.37 h | 0.669 nM | ≥ 1.92 h |
| B6 | 2.76 | 1.48 nM | 0.000984 s⁻¹ | 666000 M⁻¹ s⁻¹ | 0.2 h | 0.438 nM | 0.000211 s⁻¹ | 482000 M⁻¹ s⁻¹ | 0.917 h | 0.778 nM | 1.34 h |
